According to patent US20130122013A1 (Eli Lilly, published 2013):
Numbering of substitutions follows the chain as printed. Values belong to the binder of their own block, whether it stands above or below them.

Experiments:
[1] = biological target: T1, human FPN1 C-terminally fused with GFP (human, UniProt Q9NP59 1-571, GFP reporter fused to the C-terminus ("FPN1 is C-terminally fused with GFP"). It is left out because the patent gives no letters for it.); assay: cell-based or functional assay
T1 sequence: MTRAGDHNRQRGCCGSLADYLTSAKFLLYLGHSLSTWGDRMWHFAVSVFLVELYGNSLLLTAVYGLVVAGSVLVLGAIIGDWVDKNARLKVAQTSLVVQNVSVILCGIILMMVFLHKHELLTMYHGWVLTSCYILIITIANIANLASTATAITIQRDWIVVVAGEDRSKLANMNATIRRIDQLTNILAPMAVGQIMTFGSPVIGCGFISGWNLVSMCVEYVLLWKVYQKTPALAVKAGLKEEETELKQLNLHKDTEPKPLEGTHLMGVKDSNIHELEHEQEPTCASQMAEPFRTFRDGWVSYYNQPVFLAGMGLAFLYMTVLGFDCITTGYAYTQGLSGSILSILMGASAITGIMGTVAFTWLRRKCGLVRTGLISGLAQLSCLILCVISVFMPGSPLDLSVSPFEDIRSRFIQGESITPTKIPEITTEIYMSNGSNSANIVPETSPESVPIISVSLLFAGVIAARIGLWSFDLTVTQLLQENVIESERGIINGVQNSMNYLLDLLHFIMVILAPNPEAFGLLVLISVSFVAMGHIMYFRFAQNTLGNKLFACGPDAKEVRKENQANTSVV

[2] = biological target: T1, human FPN1 C-terminally fused with GFP; assay: cell-based or functional assay; remark: listed apart in the source
human ferroportin 1 [3] = biological target: T2, human ferroportin 1 (human, UniProt Q9NP59 1-571); assay: cell-based or functional assay
T2 sequence: T1 sequence

human ferroportin 1 [4] = biological target: T2, human ferroportin 1; assay: inhibition of binding of 30 nM biotinylated hepcidin to FPN/293 cells, ELISA of lysate
Experimental: (§1) Next, 65 μL of lysing buffer (0.5% Triton X-100, 10 mM EDTA) are added to all the wells and the plates are shaken for 10 minutes. Next, 50 μL of the solution in each well is transferred to individual wells of a streptavidin coated Greiner microtiter plate (60 μL of 2 μg/mL streptavidin (Sigma, St. Louis, Mo.; catalog no. S4762) in PBS, incubated at 4° C. overnight, washed 2 times (0.1% Tween 20, TBS), blocked with casein/PBS), and then incubated for one hour at room temperature. […] After incubating one hour at room temperature, the plate is washed 4× and 50 μL of OPD substrate (Sigma; catalog no. P6912) is added. The reaction is stopped with 100 μL 1 N HCl after 4 minutes. Absorbance at 490 nm (A₄₉₀) is read using an appropriate ELISA plate reader.

[5] = biological target: T1, human FPN1 C-terminally fused with GFP; assay: SPR, Biacore T100, 37 C, 1:1 model; FPN1-GFP captured from cell lysate on rabbit anti-GFP antibody, Mab injected
Experimental: (§2) The affinities of FPN1 binding Fabs and Mabs may be determined on Biacore T100 and using 1:1 binding model in the Biacore T100 evaluation software (BIAcore® AB, Upsala, Sweden). […] FPN1 is C-terminally fused with GFP. Expression of FPN1-GFP is induced by 1-10 ng/mL doxycycline for 1-24 hours. Induced cells are harvested by scraping off from flasks and then washed with 1×PBS. Cell pellets can be stored at −80° C. before use. About five million induced cells are resuspended in 10 mM phosphate buffer with 0.2% Tween-20 and protease inhibitors, e.g., Complete™ Protease Inhibitor Cocktail Tablet (Roche Diagnostics Corp., Indianapolis, Ind.). Three cycles of freeze/thaw/sonication are used to lyse the cells. The lysate is diluted two-fold with Biacore running buffer and centrifuged to remove debris.
(§3) On Biacore T100, rabbit anti-GFP antibody or goat anti-GFP antibody is immobilized onto flow cell 1 to 4 of a CMS chip at 5000-15000 Rus. FPN1-GFP is captured onto flow cell 2, 3, or 4 from the lysate of induced cells. Flow cell 1 is used as reference. Then all flow cells are injected with different concentrations of antibodies to evaluate the binding and kinetics.

human ferroportin 1 [6] = biological target: T2, human ferroportin 1; assay: inhibition of binding of 30 nM biotinylated hepcidin to FPN/293 cells, ELISA of lysate; antibody at 125 nM; mean
Experimental: as §1

human ferroportin 1 [7] = biological target: T2, human ferroportin 1; assay: inhibition of binding of 30 nM biotinylated hepcidin to FPN/293 cells, ELISA of lysate; antibody at 500 nM; mean
Experimental: as §1

human ferroportin 1 [8] = biological target: T2, human ferroportin 1; assay: inhibition of binding of 30 nM biotinylated hepcidin to FPN/293 cells, ELISA of lysate; antibody at 7.8 nM; mean
Experimental: as §1

human ferroportin 1 [9] = biological target: T2, human ferroportin 1; assay: inhibition of binding of 30 nM biotinylated hepcidin to FPN/293 cells, ELISA of lysate; antibody at 2000 nM; mean
Experimental: as §1

human ferroportin 1 [10] = biological target: T2, human ferroportin 1; assay: inhibition of binding of 30 nM biotinylated hepcidin to FPN/293 cells, ELISA of lysate; antibody at 31.25 nM; mean
Experimental: as §1

[11] = biological target: T1, human FPN1 C-terminally fused with GFP; assay: SPR, Biacore T100, 25 C, 1:1 model; FPN1-GFP captured from cell lysate on rabbit anti-GFP antibody, Mab injected
Experimental: as §2, §3

peptide FpnE3a = biological target: T3, peptide FpnE3a (human); assay: dot blot: peptide spotted on nitrocellulose, probed with Mab 34A9, IR700-labeled goat anti-mouse detection
T3 peptide: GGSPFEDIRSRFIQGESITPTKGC
Experimental: (§4) For each peptide, 3 μl of 1-5 μg/mL peptide is spotted onto a piece of nitrocellulose membrane and air dried. The membrane is blocked with blocking buffer (e.g., PBS containing 1% BSA), then incubated with 3-5 μg/mL FPN1 antibody in blocking buffer at room temperature for an hour. The membrane is washed three times, 5 min each, with 1×PBST (10 mM sodium phosphate, 150 mM NaCl, 0.1% Tween-20, pH 7.4) before it is incubated with IR700-labeled-Goat-anti-Mouse antibody according to manufacturer's protocol (LiCor, Inc; Lincoln, Nebr.). The membrane is washed three times, five minutes each, with 1×PBST, is imaged on Odyssey imaging system and Odyssey software (LiCor, Inc).

peptide 060719Z = biological target: T4, peptide 060719Z (human); assay: as above
T4 peptide: GGSPFEDIRSRFIQGC
Experimental: as §4

peptide 0708L4C = biological target: T5, peptide 0708L4C (human); assay: as above
T5 peptide: GGEDIRSRFIQGESITGC
Experimental: as §4

peptide 0708L4D = biological target: T6, peptide 0708L4D (human); assay: as above
T6 peptide: GGRSRFIQGESITPTKGC
Experimental: as §4

[12] = biological target: T1, human FPN1 C-terminally fused with GFP; assay: SPR, Biacore T100, 37 C; KD of Fab 1G9 against KD of Fab 34A9 (Table 4(a))
Text: The affinities of FPN1 binding Fabs and Mabs may be determined on Biacore T100 and using 1:1 binding model in the Biacore T100 evaluation software (BIAcore® AB, Upsala, Sweden). Briefly, the T-REx system, a commercially available tetracycline-regulated expression system without viral transactivators (Invitrogen, Carlsbad, Calif.) is used for stable cell line generation in T-Rex HEK 293 cells. All growth conditions are described in the T-REx manual provided by Invitrogen. FPN1 is C-terminally fused with GFP. Expression of FPN1-GFP is induced by 1-10 ng/mL doxycycline for 1-24 hours. Induced cells are harvested by scraping off from flasks and then washed with 1×PBS. Cell pellets can be stored at −80° C. before use. About five million induced cells are resuspended in 10 mM phosphate buffer with 0.2% Tween-20 and protease inhibitors, e.g., Complete™ Protease Inhibitor Cocktail Tablet (Roche Diagnostics Corp., Indianapolis, Ind.). Three cycles of freeze/thaw/sonication are used to lyse the cells. The lysate is diluted two-fold with Biacore running buffer and centrifuged to remove debris.
On Biacore T100, rabbit anti-GFP antibody or goat anti-GFP antibody is immobilized onto flow cell 1 to 4 of a CMS chip at 5000-15000 Rus. FPN1-GFP is captured onto flow cell 2, 3, or 4 from the lysate of induced cells. Flow cell 1 is used as reference. […]

[13] = biological target: T1, human FPN1 C-terminally fused with GFP; assay: SPR, Biacore T100, 37 C, 1:1 model; FPN1-GFP captured from cell lysate on rabbit anti-GFP antibody, Fab injected
Experimental: as §2, §3

[14] = biological target: T1, human FPN1 C-terminally fused with GFP; assay: SPR, Biacore T100, 37 C, 1:1 model; FPN1-GFP captured from cell lysate on goat anti-GFP antibody, Fab injected; n = 4
Experimental: as §2, §3

Percent (%) Inhibition of Mature Human Hepcidin-induced Internalization and Degradation, Mab at 7.4 nM [1]: 28.1%
Percent (%) Inhibition of Mature Human Hepcidin-induced Internalization and Degradation, Mab at 22 nM [1]: 50.2%
Percent (%) Inhibition of Mature Human Hepcidin-induced Internalization and Degradation, Mab at 67 nM [1]: 55.7%
Percent (%) Inhibition of Mature Human Hepcidin-induced Internalization and Degradation, Mab at 200 nM [1]: 63.8%
Percent (%) Inhibition of Mature Human Hepcidin-induced Internalization and Degradation, Mab at 600 nM [1]: 66.4%
Absolute IC50 of inhibition of hepcidin-25-induced internalization and degradation of FPN1-GFP [2]: 13.7 nM
Relative IC50 of inhibition of hepcidin-25-induced internalization and degradation of FPN1-GFP [2]: 10.2 nM
Top % Inhibition of hepcidin-25-induced internalization and degradation of FPN1-GFP [2]: 86.8%
EC50 of inhibition of mature hepcidin induced increase in cellular ferritin, Caco-2 cells (human ferroportin 1 [3]): 360 nM
Percentage inhibition of mature hepcidin induced increase in cellular ferritin, Caco-2 cells, Mab at 2.22E-7 M (human ferroportin 1 [3]): 25.2%
Percentage inhibition of mature hepcidin induced increase in cellular ferritin, Caco-2 cells, Mab at 2.47E-8 M (human ferroportin 1 [3]): 3.4%
Percentage inhibition of mature hepcidin induced increase in cellular ferritin, Caco-2 cells, Mab at 2.7E-9 M (human ferroportin 1 [3]): 10.6%
Percentage inhibition of mature hepcidin induced increase in cellular ferritin, Caco-2 cells, Mab at 3.0E-10 M (human ferroportin 1 [3]): 7.3%
Percentage inhibition of mature hepcidin induced increase in cellular ferritin, Caco-2 cells, Mab at 6.67E-7 M (human ferroportin 1 [3]): 29.8%
Percentage inhibition of mature hepcidin induced increase in cellular ferritin, Caco-2 cells, Mab at 7.4E-8 M (human ferroportin 1 [3]): 12%
Percentage inhibition of mature hepcidin induced increase in cellular ferritin, Caco-2 cells, Mab at 8.0E-9 M (human ferroportin 1 [3]): 14.9%
Percentage inhibition of mature hepcidin induced increase in cellular ferritin, Caco-2 cells, Mab at 9.0E-10 M (human ferroportin 1 [3]): 8.6%
IC50 (human ferroportin 1 [4]): ~400 nM
Kd [5]: 3.37 nM
koff [5]: 0.0011 s⁻¹
kon [5]: 325000 M⁻¹ s⁻¹
% Inhibition (human ferroportin 1 [6]): 21.8%
% Inhibition (human ferroportin 1 [7]): 64.7%
% Inhibition (human ferroportin 1 [8]): -2.8%
% Inhibition (human ferroportin 1 [9]): 54.7%
% Inhibition (human ferroportin 1 [10]): 4%
B1: Mab 3D8 (antibody, human IgG4 S228P, kappa, F234A L235A, V domains shown)
VH: QVQLVQSGAEVKKPGSSVKVSCKASGYAFTSFLIEWVRQAPGQGLEWMGTSNPRTGGTKYKEKFRGRVTITADKSTSTAYMELSSLRSEDTAVYYCAREFFDYWGQGTTVTVSS
VL: DIQMTQSPSSLSASVGDRVTITCRASKSISKYTAWYQQKPGKAPKLLIYAGSKLHSGVPSRFSGSGSGTDFTLTISSLQPEDFATYYCQQHNEYPYTFGGGTKVEIKR
notes: Humanized form of mouse 1G9 with human heavy chain framework VH1-69 and light chain framework O2; also called human 3D8

Percent (%) Inhibition of Mature Human Hepcidin-induced Internalization and Degradation, Mab at 7.4 nM [1]: 4.8%
Percent (%) Inhibition of Mature Human Hepcidin-induced Internalization and Degradation, Mab at 22 nM [1]: 14.1%
Percent (%) Inhibition of Mature Human Hepcidin-induced Internalization and Degradation, Mab at 67 nM [1]: 23.6%
Percent (%) Inhibition of Mature Human Hepcidin-induced Internalization and Degradation, Mab at 200 nM [1]: 30.8%
Percent (%) Inhibition of Mature Human Hepcidin-induced Internalization and Degradation, Mab at 600 nM [1]: 39%
Relative IC50 of inhibition of hepcidin-25-induced internalization and degradation of FPN1-GFP [2]: 58.9 nM
Top % Inhibition of hepcidin-25-induced internalization and degradation of FPN1-GFP [2]: 55.2%
Kd [11]: 1.18 nM
koff [11]: 8.16e-05 s⁻¹
kon [11]: 69000 M⁻¹ s⁻¹
binding result (peptide FpnE3a): binds
binding result (peptide 060719Z): binds
binding result (peptide 0708L4C): binds
binding result (peptide 0708L4D): binds
B2: Mab 34A9 (antibody, mouse IgG1, kappa, V domains shown)
VH: QVQLKQSGAELVRPGTSVKVSCKASGYAFTNFLIEWLKQRPGQGLEWIGTINPETGGTKYNEKFRGKATLTADKSSSTAYMQLNSLTSDDSAVYFCVREFFDYWGQGTSLTVSS
VL: ETTVTQSPSYLAASPGETITINCRASKSISKYLAWFQEKPGKTNKLLIYAGSTLHSGIPSRFSGSGSGTDFTLTISSLEPEDFAMYYCQQHNEYPYTFGGGTKLELKR
notes: Mouse monoclonal antibody against human FPN1; also called mouse 34A9; mouse Mab 34A9

fold improvement in binding affinity over mouse Fab 34A9 [12]: ~5 fold
Kd [13]: 7.71 nM
koff [13]: 0.000897 s⁻¹
kon [13]: 127000 M⁻¹ s⁻¹
Kd [14]: 2.9 nM
koff [14]: 0.000497 s⁻¹
kon [14]: 173000 M⁻¹ s⁻¹
B3: Fab 1G9 (Fab, V domains shown)
VH: B2 VH with N31S, E54R
VL: ETTVTQSPSYLAASPGETITINCRASKSISKYLAWFQEKPGKTNKLLIYAGSKLHSGIPSRFSGSGSGTDFTLTISSLEPEDFAMYYCFQHNEYPYTFGGGTKLELK
notes: also called mouse 1G9; mouse Fab 1G9
